Measured values as given in the supplement of paper PMC10567573.
± gives the standard deviation.

Assay: protein stability index of a GFP-peptide fusion (GPS, HEK-293T) (PSI 1-6); higher = more stable
Conditions: c terminus: a fixed tail appended
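Further: 24-mer peptide tiles fused after GFP, lentivirally expressed, FACS-sorted into six equal bins by GFP/DsRed ratio, decoded by Illumina sequencing, PSI is the read-weighted mean bin number.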

| Sequence | protein stability index (treatment: DMSO) | protein stability index (treatment: MLN4924 1 uM, 8 h) |
| --- | --- | --- |
| ERHLVEIKQKLGMNLMNELKQNFS [TPD52L1] | 3.04 ± 0.2 | 2.71 ± 0.41 |
| QVADINDNPPTFSQVSYFTYIPEN [PCDHGA10] | 2.98 ± 0.32 | 3.09 ± 0.3 |
| KGNPEEEDVDTSQVLYEWEQGFSQ [CTNNB1] | 5.11 ± 0.25 | 5.25 ± 0.28 |
| KETAHDLDVKSPPEPRSEVVPARL [RIPK4] | 4.8 ± 1.2 | 4.88 ± 0.86 |
| DEVPGSQGSQASQAPPVPGPPPGA [NR2F2] | 5.45 ± 0.23 | 5.604 ± 0.036 |
| TEDEKKELENLAAMDLELQKIAEK [CHGB] | 5.47 ± 0.22 | 5.57 ± 0.083 |
| DCLKKFNARRKLKGAILTTMLATR [CAMK2D] | 3.04 ± 0.78 | 3.49 ± 0.37 |
| LDRERAAANEQLTRAILRERICSE [CHCHD3] | 4.14 ± 0.23 | 4.1 ± 0.42 |
| MVGQKDSVILSVKFSPFGQWWASV [TLE6] | 2.95 ± 0.35 | 2.89 ± 0.35 |
| SFANDRENYDIIKTYHYLYLAMLE [FEM1B] | 2.44 ± 1.1 | 2.33 ± 0.61 |
| EELEEDIRKKLKDSGDVSNVIEKV [RHOBTB3] | 5.37 ± 0.31 | 5.5 ± 0.25 |
| KLGPALKIYEYHVKPLQTKHLKNN [SAMD13] | 2.46 ± 0.14 | 2.54 ± 0.22 |
| DVLRGNDETIGFEDILNDPSQSEV [POMP] | 5.13 ± 0.092 | 5.21 ± 0.17 |
| GVPNASVIMQVPERIVVAGNNEDV [MFF] | 4.68 ± 0.72 | 4.35 ± 0.31 |
| EEELNFEKGETMEVIEKPENDPEW [NCK2] | 5.53 ± 0.32 | 5.55 ± 0.5 |
| YGPQVNNISHTKEKKKGKAKKKRL [WASL] | 4.48 ± 0.34 | 4.68 ± 0.29 |
| EQPVPPTPATPEDPAPLWGPPPAQ [EMID1] | 4.92 ± 0.38 | 5.32 ± 0.22 |
| TAFCTHVFPETAFIAVTSYQNHKI [TBX5] | 2.31 ± 0.41 | 2.27 ± 0.42 |
| SSPDDKLLTSPRAINNLVLQGCSS [KLHL14] | 3.99 ± 0.17 | 4.14 ± 0.23 |
| HSLDLNISEKLTLLPTLYEIHSKT [RNF180] | 2.34 ± 0.26 | 2.46 ± 0.42 |
| NPNFEVAESDYSNNIMKCRSRYDG [LOXL2] | 4.42 ± 0.24 | 4.42 ± 0.33 |
| DCGLNLKQRGYFFLDERLYCESHA [PDLIM4] | 2.43 ± 0.17 | 2.3 ± 0.44 |
| AQEQLRPQTPEPVEGRKHVDVQTE [RSPH3] | 5.41 ± 0.31 | 5.34 ± 0.24 |

| Sequence | protein stability index (treatment: DMSO) | protein stability index (treatment: MLN4924 1 uM, 8 h) |
| --- | --- | --- |
| LANGRALSAGSPPVPPGWNPNSSS [DLX1] | 3.93 ± 0.22 | 4 ± 0.29 |
| IQKAYDELRLQSEAFKKHSLDLLS [CCDC89] | 2.68 ± 0.31 | 2.91 ± 0.23 |
| NFLTQRENTIAGANHTHTFYGHSH [C10orf62] | 3.1 ± 0.26 | 3.09 ± 0.2 |
| TLSASSSAGGSRTPAMSSSSSSRV [TFE3] | 4.57 ± 0.46 | 4.96 ± 0.25 |
| RQDADAWTLYKILDSCKQLTLAQG [SMG5] | 2.29 ± 0.26 | 2.32 ± 0.083 |
| LTIEERYLPQCSYFKCVQKDIQPY [CCND2] | 2.37 ± 0.31 | 2.49 ± 0.24 |
| RGNHESRQITQVYGFYDECLRKYG [PPP2CA] | 2.75 ± 0.4 | 2.59 ± 0.19 |
| ERNNIAVRKSRDKAKRRNQEMQQK [CEBPD] | 3.79 ± 0.9 | 3.31 ± 0.37 |
| DALEDSLEEVAVQQTGDDDEVDDF [PBXIP1] | 5.59 ± 0.28 | 5.67 ± 0.15 |
| RELEEYRREVERKQKGSEENLDEA [ADD1] | 5.57 ± 0.24 | 5.61 ± 0.17 |
| EPFVLPASSVESTLPVLEASSWKK [FBXO34] | 4.57 ± 0.22 | 4.87 ± 0.2 |
| GQFVSLDGAGKTPTLGGGFHVNLG [BRF1] | 2.96 ± 0.37 | 3.06 ± 0.11 |
| AAWLTLWVFGTSFLPFLLCAVLLS [FADS1] | 2.97 ± 0.53 | 3.15 ± 0.69 |
| SRQYDKFLTHFILMNDVIDTSGFP [FBXO33] | 2.51 ± 0.5 | 1.97 ± 0.5 |
| AEDAVYGRDGYDYDGYRLRVEFPR [SRSF1] | 3.37 ± 0.2 | 3.44 ± 0.37 |
| QLQHEKAELEQHLEQEQEFQVNKL [CCDC6] | 5.35 ± 0.19 | 5.41 ± 0.24 |
| DSAELEPGSQTAVKNSNRYDVEMT [FBXO34] | 5.26 ± 0.2 | 5.29 ± 0.2 |
| PLQGTDEDAVASADFSSMLSEEEK [TPD52L1] | 5.48 ± 0.58 | 5.69 ± 0.094 |
| DERRQLQHLKSKALRERWLLEGTP [PALM] | 3.54 ± 0.44 | 3.71 ± 0.23 |
| LEDVERELDGPKQIFFGRRKDMIA [ZNF396] | 3.98 ± 0.3 | 4 ± 0.15 |
| TFVFLASLLVLIEPVAAGSGIPEV [CLCN6] | 2.91 ± 0.58 | 2.71 ± 0.6 |
| HSDHSSEMSLPEVQKDKYPEEFSL [SPATS1] | 5.3 ± 0.29 | 5.26 ± 0.29 |
